Source: patent US20240279288A1, “APPLICATION OF PLANT JAZ PROTEINS AND DERIVED POLYPEPTIDES IN PREVENTION AND TREATMENT OF HUMAN AND ANIMAL TUMORS” (ANYANG INSTITUTE OF SINO-COTTON INDUSTRY INNOVATION, priority 2021, published 2024)

B1: GhJAZ1: cotton JAZ1 protein, gene number Gh_A05G0260, sequence SEQ ID No. 4; prokaryotically expressed with His tag, about 30 KD (protein)
chain: MSSCSESTAMKPARSPEKPSFAQTCNLLSQYLKEKGSFGDLSLGMTCNVEANGTPVVPPPTMNLFPLNDKSDDVCGRNGGNPKNLTSMDLFPQQAGLASKDDSPNKLEPQTAPMTIFYGGQVIVFNDFPANKAKEIMLLASNSSSQSNNSFNPIPFTSSIARSPIESSIGVPPTSKPVHPAQRAVPGDLPIARRASLHRFLEKRKDRITAKAPYQINNSAAAPSLSGDNKSWLGLAAQSP
modifications: His tag
notes: prokaryotically expressed with His tag, about 30 KD
B2: GhJAZ1 after deletion of NT domain: GhJAZ1 mutant with NT domain deleted, protein sequence SEQ ID No. 83 (protein)
chain: MSSCSESTAMKPARSPEANGTPVVPPPTMNLFPLNDKSDDVCGRNGGNPKNLTSMDLFPQQAGLASKDDSPNKLEPQTAPMTIFYGGQVIVFNDFPANKAKEIMLLASNSSSQSNNSFNPIPFTSSIARSPIESSIGVPPTSKPVHPAQRAVPGDLPIARRASLHRFLEKRKDRITAKAPYQINNSAAAPSLSGDNKSWLGLAAQSP

How the values were obtained:
GhCOI1 = assay: Yeast two hybrid with GhCOI1; assay type: binding, cotton; details: in the presence of JA-Ile
Experimental: (§1) The study on Arabidopsis had shown that the inhibition of JAZ protein on JA signaling was mainly achieved by inhibiting the transcription factor function of MYC, which had been experimentally verified by us in cotton. Based on the phylogenetic tree of Arabidopsis and cotton JAZs, we screened 6 cotton JAZs (GhJAZ1, GhJAZ7, GhJAZ9, GhJAZ10, GhJAZ11 and GhJAZ31), which were analyzed with GhMYC2, GhNINJA, GhTPL, GhHDA6, and GhCOI1 for yeast two hybrid. The amino acid sequence of GhJAZ1 was set forth in SEQ ID No. 4, and the corresponding encoding gene sequence was set forth in SEQ ID No. 39; the amino acid sequence of GhJAZ7 was set forth in SEQ ID No. 7, and the corresponding encoding gene sequence was set forth in SEQ ID No. 42; the amino acid sequence of GhJAZ9 was set forth in SEQ ID No. 2, and the corresponding encoding gene sequence was set forth in SEQ ID No. 37; the amino acid sequence of GhJAZ10 was set forth in SEQ ID No. 3, and the corresponding encoding gene sequence was set forth in SEQ ID No. 38; the amino acid sequence of GhJAZ11 was set forth in SEQ ID No. 5, and the corresponding encoding gene sequence was set forth in SEQ ID No. 40; and the amino acid sequence of GhJAZ31 was set forth in SEQ ID No. 9, and the corresponding encoding gene sequence was set forth in SEQ ID No. 44. The amino acid sequence of GhMYC2 was set forth in SEQ ID No. 71, and the corresponding encoding gene sequence was set forth in SEQ ID No. 72; the amino acid sequence of GhNINJA was set forth in SEQ ID No. 73, and the corresponding encoding gene sequence was set forth in SEQ ID No. 74; the amino acid sequence of GhTPL was set forth in SEQ ID No. 75, and the corresponding encoding gene sequence was set forth in SEQ ID No. 76; the amino acid sequence of GhHDA6 was set forth in SEQ ID No. 77, and the corresponding encoding gene sequence was set forth in SEQ ID No. 78; and the amino acid sequence of GhCOI1 was set forth in SEQ ID No. 79, and the corresponding encoding gene sequence was set forth in SEQ ID No. 80. […]

GhMYC2 = assay: Yeast two hybrid with GhMYC2; assay type: binding, cotton
Experimental: as §1

GhCOI1, sequence (as listed by the source): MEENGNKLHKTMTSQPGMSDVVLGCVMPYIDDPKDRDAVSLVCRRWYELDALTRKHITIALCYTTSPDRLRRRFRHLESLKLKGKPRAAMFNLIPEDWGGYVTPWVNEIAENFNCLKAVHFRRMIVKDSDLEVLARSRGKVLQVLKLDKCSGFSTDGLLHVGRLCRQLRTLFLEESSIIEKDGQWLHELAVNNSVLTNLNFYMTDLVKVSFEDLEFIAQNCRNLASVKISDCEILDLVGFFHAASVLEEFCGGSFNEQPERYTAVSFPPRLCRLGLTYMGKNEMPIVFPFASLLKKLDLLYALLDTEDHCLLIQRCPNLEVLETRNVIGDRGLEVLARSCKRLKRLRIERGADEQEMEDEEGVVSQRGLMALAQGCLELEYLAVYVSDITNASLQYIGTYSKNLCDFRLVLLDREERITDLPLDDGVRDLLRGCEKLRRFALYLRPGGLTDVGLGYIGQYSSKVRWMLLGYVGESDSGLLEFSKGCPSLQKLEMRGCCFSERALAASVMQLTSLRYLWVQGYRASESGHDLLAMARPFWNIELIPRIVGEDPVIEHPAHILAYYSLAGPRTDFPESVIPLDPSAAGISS
GhMYC2, sequence (as listed by the source): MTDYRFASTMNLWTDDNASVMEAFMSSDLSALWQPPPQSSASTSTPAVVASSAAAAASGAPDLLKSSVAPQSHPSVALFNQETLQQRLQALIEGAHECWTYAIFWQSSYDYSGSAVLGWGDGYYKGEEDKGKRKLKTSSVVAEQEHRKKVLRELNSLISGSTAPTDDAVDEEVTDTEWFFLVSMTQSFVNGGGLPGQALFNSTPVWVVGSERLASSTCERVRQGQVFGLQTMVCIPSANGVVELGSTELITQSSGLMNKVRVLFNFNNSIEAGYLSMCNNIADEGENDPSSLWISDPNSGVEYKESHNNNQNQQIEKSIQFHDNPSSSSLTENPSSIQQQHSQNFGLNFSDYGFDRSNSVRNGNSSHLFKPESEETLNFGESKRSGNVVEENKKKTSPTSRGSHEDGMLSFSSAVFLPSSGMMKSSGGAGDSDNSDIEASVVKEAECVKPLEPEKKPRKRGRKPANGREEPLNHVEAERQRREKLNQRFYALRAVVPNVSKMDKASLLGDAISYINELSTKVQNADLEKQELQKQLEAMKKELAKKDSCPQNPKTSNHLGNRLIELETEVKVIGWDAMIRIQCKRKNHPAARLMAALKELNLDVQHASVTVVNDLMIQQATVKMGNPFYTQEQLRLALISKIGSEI

| Molecule | interaction with GhCOI1 (GhCOI1) | interaction with GhMYC2 (GhMYC2) |
| --- | --- | --- |
| B1 | interacted | strong |
| B2 | significantly weakened | significantly weakened |
